Experimental data: article PMC6468871

Target: T1, RAD51 WT protein phosphorylated in vitro by c-MET kinase (human)
T1 chain: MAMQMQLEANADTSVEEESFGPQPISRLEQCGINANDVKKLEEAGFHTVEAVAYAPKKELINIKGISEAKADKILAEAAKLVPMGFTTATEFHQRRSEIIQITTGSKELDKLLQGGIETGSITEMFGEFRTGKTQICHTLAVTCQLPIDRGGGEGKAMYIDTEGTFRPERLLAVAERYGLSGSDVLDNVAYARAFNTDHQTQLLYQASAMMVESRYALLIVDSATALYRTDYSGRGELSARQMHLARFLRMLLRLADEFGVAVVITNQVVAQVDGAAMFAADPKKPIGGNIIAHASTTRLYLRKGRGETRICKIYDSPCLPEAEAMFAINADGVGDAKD
Test: cross-linking; RAD51 10 uM with ATP 2 mM, with or without kinase-active c-MET (0.1 uM) and PHA665752 (1 uM); 20 mM BS3, room temperature, 30 min, stopped with Tris 1 M pH 8.0; SDS-PAGE 10% and western blot with anti-RAD51
Details: remark: other sources report otherwise

fold of multimer forms against non-phosphorylated RAD51: 1.6 fold
B1: RAD51 WT protein phosphorylated in vitro by c-MET kinase (natural protein)
chain: MAMQMQLEANADTSVEEESFGPQPISRLEQCGINANDVKKLEEAGFHTVEAVAYAPKKELINIKGISEAKADKILAEAAKLVPMGFTTATEFHQRRSEIIQITTGSKELDKLLQGGIETGSITEMFGEFRTGKTQICHTLAVTCQLPIDRGGGEGKAMYIDTEGTFRPERLLAVAERYGLSGSDVLDNVAYARAFNTDHQTQLLYQASAMMVESRYALLIVDSATALYRTDYSGRGELSARQMHLARFLRMLLRLADEFGVAVVITNQVVAQVDGAAMFAADPKKPIGGNIIAHASTTRLYLRKGRGETRICKIYDSPCLPEAEAMFAINADGVGDAKD
modifications: here or on the partner: phosphotyrosine at Y159, Y191, Y205 and Y315 (sites the paper concludes for c-MET; extent at each site not stated); phosphotyrosine at Y159, Y191, Y205 and Y315 (sites the paper concludes for c-MET; extent at each site not stated)
